Assay results taken from article PMC7710607.

Target: ACSL1 (UniProt P41216)
Test: co-IP of tagged proteins, blot
Conditions: reference: wild type TBK1; sites S172

binding against the reference: stronger
Substance: TBK1 (flag-human TBK1) (from UniProt Q9UHD2) S172A
